Measured values from patent US20180127504A1 (ACADEMIA SINICA, published 2018).
Changes are numbered by the printed parent chain.

B1: R2S8 (scFv, V domains shown)
VH: QVQLVQSGGGLVKPGGSLRLSCAASGFTFSSYSMSWVRQAPGKGLEWVSSISSSSSYIYYADSVKGRFTISRDNAKNSLYLQMNSLRAEDTAVYYCARSTDAFDIWGQGTMVTVSS
VL: DIVMTQSPSSLSASVGDRVTITCRASQRISNYLNWYQHKSGEDPKLLIYAASSLQSGVPSRFSGSGSGTDFTLTISSLQPEDFATYYCQQYDRYPPTFGQGTKLEIK
notes: also called soluble anti-VEGFR2 scFv from phage clone R2PC8
B2: R2S12 (scFv, V domains shown)
VH: QVNLRESGGGLVKPGGSLRLSCAASGFTFGSYTMNWVRQAPGKGLEWVASITSGSSYIFYTDSVKGRFTISRDNSRSSLFLQMNSLRAEDTAIYYCARGSASAFDIWGQGTMVTVSS
VL: DIQMTQSPSSLSASVGDRVTITCKASDDIINYLNWYQQKPGEAPKLLIYDASILETGVPSRFSGSGSGTDFTFTISSLQPEDIATYYCQQYDILPLTFGGGTKLEIK
notes: Soluble scFv made in E. coli HB2151 from phage clone R2PC12, with E tag; also called soluble anti-VEGFR2 scFv from phage clone R2PC12
B3: R2S28 (scFv, V domains shown)
VH: EVQLVESGGALVQPGGSLRLSCVGSEFTFSHYNLHWVRQAPGKGLEWLAVISDDGRNKYYGDSVKGRFTISRDNSKNTLYLQMNGLRAEDTAVYYCARVPTVWRGGVYDIWGQGTMVTVSS
VL: EIVLTQSPATLSLSPGERATLSCRASQSVGSYLAWYQQRPGQPPRLLIYDASNRATGVAARFSGSGSGTDFTLTIDSLEAEDAATYYCHQSSSLPRTFGQGTKLEIK
notes: also called soluble anti-VEGFR2 scFv from phage clone R2PC28
B4: R2PC8 (scFv, V domains shown)
VH: B1 VH
VL: B1 VL
notes: also called anti-VEGFR2 scFv phage clone 8
B5: R2PC12 (scFv, V domains shown)
VH: B2 VH
VL: B2 VL
notes: also called anti-VEGFR2 scFv phage clone 12
B6: R2PC29 (scFv, V domains shown)
VH: QVQLQQSGAEMKKSGSSVKVSCKASGGNFISKGISWVRQAPGQGLEWMGGIIPLFGTGNYAQKFQGRVTITADESTTTVYLQLTSLTPEDTAMYFCATADVDYSDSLEAFDMWGQGTMVTVSS
VL: DIVMTQSPSSLSASVGDRVTITCRASQSINNYLNWYQQKPGKAPNLLIYGASSLQSGVPSRFRGSGSGTDFTLTISSLQPEDFATYYCQQSYSTPLFGQGTKLEIK
notes: also called anti-VEGFR2 scFv phage clone 29
B7: R2PC28 (scFv, V domains shown)
VH: B3 VH
VL: B3 VL
notes: also called anti-VEGFR2 scFv phage clone 28
B8: R2S29 (scFv, V domains shown)
VH: B6 VH
VL: B6 VL
notes: also called soluble anti-VEGFR2 scFv from phage clone R2PC29

Each binder was assayed against T1, VEGFR2(del3) (human, UniProt P35968 20-813) (assay: immunofluorescent staining of transfected 293T cells).
T1 construct: Expressed on 293T cells; also called VEGFR2 with domain 3 deleted

Question: Does B1 bind?
Answer: no binding

Question: Does B2 bind?
Answer: no binding

Question: Does B3 bind?
Answer: binds

Each binder was assayed against T2, VEGFR2(del2-3) (human, UniProt P35968 20-813) in the same assay as above.
T2 construct: Expressed on 293T cells; also called VEGFR2 with domains 2 and 3 deleted

Question: Does B1 bind?
Answer: no binding

Question: Does B2 bind?
Answer: no binding

Question: Does B3 bind?
Answer: binds

What follows are binders tested against T3, VEGFR2(1-7) (human, UniProt P35968 20-813) in the same assay as above.
T3 construct: Expressed on 293T cells; also called full-length extracellular region of VEGFR2, domains 1-7, Met1 to Leu813

Question: Does B1 bind?
Answer: binds

Question: Does B2 bind?
Answer: binds

Question: Does B3 bind?
Answer: binds

Target: T4, VEGFR2(M2) (human, UniProt P35968 20-813)
T4 construct: Expressed on 293T cells; single substitutions derived from the printed replacement of the seven-residue stretch
T4 chain: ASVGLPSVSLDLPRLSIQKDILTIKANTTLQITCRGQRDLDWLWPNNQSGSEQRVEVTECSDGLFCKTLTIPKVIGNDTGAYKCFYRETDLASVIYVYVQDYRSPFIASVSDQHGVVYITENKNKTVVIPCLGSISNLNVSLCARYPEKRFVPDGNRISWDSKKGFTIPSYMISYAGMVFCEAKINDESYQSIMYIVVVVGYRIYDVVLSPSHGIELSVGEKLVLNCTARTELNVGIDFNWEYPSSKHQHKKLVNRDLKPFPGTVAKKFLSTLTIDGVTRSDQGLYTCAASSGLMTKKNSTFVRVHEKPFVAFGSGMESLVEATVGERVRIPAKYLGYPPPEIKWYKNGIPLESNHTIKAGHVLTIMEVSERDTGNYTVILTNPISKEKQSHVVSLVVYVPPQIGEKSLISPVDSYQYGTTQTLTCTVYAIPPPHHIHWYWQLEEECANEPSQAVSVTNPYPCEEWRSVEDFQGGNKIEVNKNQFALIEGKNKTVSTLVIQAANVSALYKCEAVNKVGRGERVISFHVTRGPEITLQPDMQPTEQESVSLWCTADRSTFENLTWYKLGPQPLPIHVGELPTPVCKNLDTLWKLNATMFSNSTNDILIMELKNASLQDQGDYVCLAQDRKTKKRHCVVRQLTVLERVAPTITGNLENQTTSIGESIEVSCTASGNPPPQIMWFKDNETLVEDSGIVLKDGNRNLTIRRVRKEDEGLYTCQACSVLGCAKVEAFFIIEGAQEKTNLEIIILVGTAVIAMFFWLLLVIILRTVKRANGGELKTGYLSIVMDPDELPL
Test: as above

Question: Does B1 bind?
Answer: binds

Question: Does B2 bind?
Answer: binds

Question: Does B3 bind?
Answer: binds

These binders were tested against T5, VEGFR2(4-7) (human, UniProt P35968 321-813) in the same assay as above.
T5 construct: also called domains 4-7, Phe321 to Leu813

Question: Does B1 bind?
Answer: no binding

Question: Does B2 bind?
Answer: no binding

Question: Does B3 bind?
Answer: no binding

Target: T6, VEGFR2(M1) (human, UniProt P35968 20-813)
T6 construct: Expressed on 293T cells; single substitutions derived from the printed replacement of the six-residue stretch; also called VEGFR2-M1 mutant protein
T6 chain: T4 chain with N240T, E242H, Y243S, S245P, P260T, F261Q, P262S, T264S, V265E, A266M
Test: as above

Question: Does B1 bind?
Answer: no binding

Question: Does B2 bind?
Answer: no binding

Question: Does B3 bind?
Answer: binds

What follows are binders tested against T7, VEGFR2(2-7) (human, UniProt P35968 111-813) in the same assay as above.
T7 construct: also called domains 2-7, Ala111 to Leu813

Question: Does B1 bind?
Answer: binds

Question: Does B2 bind?
Answer: binds

Question: Does B3 bind?
Answer: no binding

What follows are binders tested against T8, VEGFR2 on the cell surface of human umbilical vein endothelial cells (HUVEC) (human, UniProt P35968 20-1356) (assay: flow cytometry on HUVECs, 1x10^10 cfu phage, anti-M13 and PE-labelled secondary antibody).
T8 construct: Endogenous receptor of human cells; also called cell-surface VEGFR2; cellular VEGFR2
Protocol: About 1×10⁴ HUVEC were incubated with the selected anti-VEGFR2 phage clones at 4° C. for 1 hour in FACS buffer (PBS containing 1% fetal bovine serum). After the cells were washed with FACS buffer, they were first incubated with mouse anti-M13 phage Ab for 1 hr at 4° C., and then with R-phycoerythrin-conjugated goat anti-mouse IgG (Jackson Immuno Research) for 30 min at 4° C. Flow cytometry was performed with a FACSCantoII (BD), and emission fluorescence intensity was measured with FACS Diva software (BD) to quantitatively compare binding affinities.
(§1) After four rounds of affinity selection (biopanning), the titer of bound phage increased by as much as 3,455-fold (FIG. 1A).

Question: Does B4 bind?
Answer: binds

Question: Does B5 bind?
Answer: binds

Question: Does B6 bind?
Answer: binds

Question: Does B7 bind?
Answer: binds

What follows are binders tested against T9, c-Met-Fc control protein (UniProt P08581 25-932, limits assumed) (assay: phage ELISA on coated MET-Fc, anti-M13-HRP detection).
T9 construct: Bought control protein; also called Met-Fc (R&D); c-Met-Fe; not shown: Fc part of the bought fusion protein; not described
Protocol: The selected phages were further examined by ELISA screening. The 96-well plates were coated with […] of VEGFR2-Fc, Met-Fc (R&D), or BSA (Sigma) protein in 0.1 M sodium bicarbonate overnight at 4° C. After blocking with 1% BSA in PBS (w/v) for 2 hr at room temperature, 70-randomly selected phage clones were added to the plates at a 1:2 dilution in 1% BSA, and incubated for 1 hr at room temperature. Following washes with PBST, the plates were incubated with a 1:2000 dilution of horseradish peroxidase (HRP)-conjugated mouse anti-M13 phage antibody (GE) for 1 hr. After washing with PBST, the colorimetric reaction was developed with the peroxidase substrate ortho-phenylenediamine (OPD; Sigma) plus H₂O₂ for 15 min, and then terminated by the addition of 3 N HCl. The absorbance at 490 nm was determined using a microplate reader (SpectraMax, Molecular Devices). Plasmid DNA of positive clones were isolated and sequenced using the pCANTAB5 sequencing primer set.
as §1

T9 sequence (P08581 25-932 limits assumed): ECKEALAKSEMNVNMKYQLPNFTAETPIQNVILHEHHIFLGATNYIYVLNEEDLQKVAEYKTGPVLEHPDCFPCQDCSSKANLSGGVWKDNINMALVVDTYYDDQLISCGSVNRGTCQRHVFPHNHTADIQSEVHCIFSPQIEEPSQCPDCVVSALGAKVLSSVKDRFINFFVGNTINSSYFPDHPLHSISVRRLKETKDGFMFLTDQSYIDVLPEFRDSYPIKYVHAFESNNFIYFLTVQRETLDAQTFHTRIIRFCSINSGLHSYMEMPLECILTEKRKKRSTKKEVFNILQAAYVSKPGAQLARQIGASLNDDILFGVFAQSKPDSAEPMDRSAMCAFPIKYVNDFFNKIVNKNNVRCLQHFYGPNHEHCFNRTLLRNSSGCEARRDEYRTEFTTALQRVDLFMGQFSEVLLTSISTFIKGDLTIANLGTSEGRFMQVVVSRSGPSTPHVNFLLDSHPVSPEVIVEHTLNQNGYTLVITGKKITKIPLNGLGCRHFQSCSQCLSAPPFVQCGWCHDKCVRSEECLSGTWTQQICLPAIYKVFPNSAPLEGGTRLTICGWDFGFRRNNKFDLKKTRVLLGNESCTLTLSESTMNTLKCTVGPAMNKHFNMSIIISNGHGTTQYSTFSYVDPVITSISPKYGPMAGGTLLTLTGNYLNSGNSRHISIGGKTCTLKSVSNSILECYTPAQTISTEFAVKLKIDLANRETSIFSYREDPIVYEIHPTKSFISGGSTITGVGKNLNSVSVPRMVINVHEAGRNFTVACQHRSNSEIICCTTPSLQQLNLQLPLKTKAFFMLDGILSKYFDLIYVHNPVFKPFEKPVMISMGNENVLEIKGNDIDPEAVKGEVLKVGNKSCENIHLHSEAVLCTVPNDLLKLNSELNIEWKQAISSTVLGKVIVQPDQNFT

Question: Does B4 bind?
Answer: no binding (tested: 1x10^9 cfu)

Question: Does B5 bind?
Answer: no binding (tested: 1x10^9 cfu)

Question: Does B6 bind?
Answer: no binding (tested: 1x10^9 cfu)

Question: Does B7 bind?
Answer: no binding (tested: 1x10^9 cfu)

These binders were tested against T10, VEGFR2 on tumor vascular endothelium (frozen sections of human lung cancer specimens) (human, UniProt P35968) (assay: immunofluorescence on frozen sections of human lung cancer, scFv detected by anti-E tag and rhodamine secondary antibody, CD31 co-staining).
T10 construct: endogenous, on CD31-positive tumor vascular endothelium in frozen tissue sections; also called human tumor vasculature

Question: Does B1 bind?
Answer: binds

Question: Does B2 bind?
Answer: binds

Question: Does B8 bind?
Answer: binds

Question: Does B3 bind?
Answer: binds
